Experimental data as given in PMC13184981 (ACS Chemical Biology, 2026).

Molecular target: the molecule itself
Assay: mass photometry

B1: Purified recombinant full-length LIMK1 (natural protein)
chain: MRLTLLCCTWREERMGEEGSELPVCASCGQRIYDGQYLQALNADWHADCFRCCDCSASLSHQYYEKDGQLFCKKDYWARYGESCHGCSEQITKGLVMVAGELKYHPECFICLTCGTFIGDGDTYTLVEHSKLYCGHCYYQTVVTPVIEQILPDSPGSHLPHTVTLVSIPASSHGKRGLSVSIDPPHGPPGCGTEHSHTVRVQGVDPGCMSPDVKNSIHVGDRILEINGTPIRNVPLDEIDLLIQETSRLLQLTLEHDPHDTLGHGLGPETSPLSSPAYTPSGEAGSSARQKPVLRSCSIDRSPGAGSLGSPASQRKDLGRSESLRVVCRPHRIFRPSDLIHGEVLGKGCFGQAIKVTHRETGEVMVMKELIRFDEETQRTFLKEVKVMRCLEHPNVLKFIGVLYKDKRLNFITEYIKGGTLRGIIKSMDSQYPWSQRVSFAKDIASGMAYLHSMNIIHRDLNSHNCLVRENKNVVVADFGLARLMVDEKTQPEGLRSLKKPDRKKRYTVVGNPYWMAPEMINGRSYDEKVDVFSFGIVLCEIIGRVNADPDYLPRTMDFGLNVRGFLDRYCPPNCPPSFFPITVRCCDLDPEKRPSFVKLEHWLETLRMHLAGHLPLGPQLEQLDRGFWETYRRGESGLPAHPEVPD
notes: source: insect cells, baculovirus, purified (Ni-NTA, SP Sepharose, TEV cleavage, SEC)
stoichiometry N: 2
